Data published in patent publication US7888025B2, “Intestinal folate transporter method” (Albert Einstein College of Medicine of Yeshiva University, priority 2007, dated 2011).
Where two headings read alike, the source gives them in different places. Blank lines part the entries; values can stand above or below the molecule they belong to.

How the values were obtained:
[1] = molecular target: rat jejunum brush border membranes; settings: read-out: Ki, competitive inhibition of folic acid uptake; cited from earlier work
G21 (PCFT) = molecular target: T1, G21 (PCFT) (Homo sapiens, UniProt Q96NT5); test: Inhibition of [3H]folic acid uptake into G21 cRNA-injected Xenopus oocytes; assay type: cell-based; settings: 20 μM nonlabeled compound, pH 5.5, 30 min
T1 construct: expressed in transfected cells; host or cells: Xenopus laevis oocytes injected with capped G21 cRNA (pSPT64, SP6)
T1 sequence (Q96NT5 1-459): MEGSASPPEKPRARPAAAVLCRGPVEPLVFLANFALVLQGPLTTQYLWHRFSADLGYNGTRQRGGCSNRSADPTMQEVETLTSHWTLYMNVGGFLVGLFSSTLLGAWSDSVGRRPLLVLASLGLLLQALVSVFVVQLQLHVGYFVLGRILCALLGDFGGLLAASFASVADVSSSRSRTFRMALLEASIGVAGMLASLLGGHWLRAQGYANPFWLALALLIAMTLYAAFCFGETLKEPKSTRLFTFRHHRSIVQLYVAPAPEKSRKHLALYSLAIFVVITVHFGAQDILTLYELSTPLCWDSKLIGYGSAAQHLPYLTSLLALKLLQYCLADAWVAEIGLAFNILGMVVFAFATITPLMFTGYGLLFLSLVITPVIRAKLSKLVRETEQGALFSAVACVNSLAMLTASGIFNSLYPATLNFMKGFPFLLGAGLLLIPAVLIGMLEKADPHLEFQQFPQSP
Procedure: Uptake studies in Xenopus oocytes. […] Radiotracer uptake was determined 3 or 4 days later. […] Uptake was halted by the addition of ice-cold MBS (pH 7.5). Oocytes were washed 10 times thereafter, and solubilized with 10% SDS for measurement of radioactivity. To collapse the pH gradient across the oocyte membrane, seven to 10 oocytes were incubated in MBS (pH 5.5) containing 0, 10, 20, 40, 60 μM FCCP for 20 min, and uptake of transport substrates assessed at pH 5.5.

[2] = molecular target: T2, reduced folate carrier (SLC19A1) (Homo sapiens, UniProt P41440); settings: cited from earlier work
T2 sequence (P41440 1-591): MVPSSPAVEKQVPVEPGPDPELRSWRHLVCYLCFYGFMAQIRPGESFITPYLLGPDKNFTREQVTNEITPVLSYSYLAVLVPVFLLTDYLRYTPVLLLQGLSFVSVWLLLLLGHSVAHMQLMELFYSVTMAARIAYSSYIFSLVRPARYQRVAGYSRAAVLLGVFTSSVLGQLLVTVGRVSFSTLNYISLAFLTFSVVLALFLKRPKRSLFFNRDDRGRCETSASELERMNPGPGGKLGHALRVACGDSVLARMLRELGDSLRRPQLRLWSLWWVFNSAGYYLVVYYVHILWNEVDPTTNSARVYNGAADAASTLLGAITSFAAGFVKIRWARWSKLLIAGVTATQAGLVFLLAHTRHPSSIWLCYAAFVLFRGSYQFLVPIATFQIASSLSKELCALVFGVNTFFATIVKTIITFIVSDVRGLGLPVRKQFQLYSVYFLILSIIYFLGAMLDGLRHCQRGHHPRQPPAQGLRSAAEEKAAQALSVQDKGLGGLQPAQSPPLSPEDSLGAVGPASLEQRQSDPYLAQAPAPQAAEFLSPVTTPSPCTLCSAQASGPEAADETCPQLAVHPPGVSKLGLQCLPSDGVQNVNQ

[3] = molecular target: T3, low-pH folate transporter (Homo sapiens, UniProt Q96NT5); settings: cited from earlier work
T3 construct: host or cells: HeLa and other cells
T3 sequence (Q96NT5 1-459): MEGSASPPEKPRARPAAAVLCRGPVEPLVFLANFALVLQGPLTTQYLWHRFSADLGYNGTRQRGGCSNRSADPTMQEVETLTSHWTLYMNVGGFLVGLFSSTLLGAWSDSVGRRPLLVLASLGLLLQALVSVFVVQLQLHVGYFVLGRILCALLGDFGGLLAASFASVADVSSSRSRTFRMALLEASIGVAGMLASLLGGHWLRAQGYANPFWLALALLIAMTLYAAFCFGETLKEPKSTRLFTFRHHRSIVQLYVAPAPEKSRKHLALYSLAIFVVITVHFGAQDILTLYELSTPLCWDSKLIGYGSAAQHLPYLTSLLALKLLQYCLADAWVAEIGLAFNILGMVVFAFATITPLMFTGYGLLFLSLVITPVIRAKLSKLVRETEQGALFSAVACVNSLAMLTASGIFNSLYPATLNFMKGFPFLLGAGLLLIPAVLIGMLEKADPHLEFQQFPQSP

PCFT = test: [3H](6S)5-methylTHF uptake in HeLa cells transiently transfected with mutated PCFT cDNA; assay type: cell-based, human; settings: 0.5 μM, pH 5.5, 37° C., 2 min, transiently transfected HeLa cells
Text: Analysis of G21 in a family with hereditary folate malabsorption. Members of a family with hereditary folate malabsorption were studied according to a protocol and Informed Consent in the subjects' native language approved by the Albert Einstein College of Medicine IRB (CCI#2006-279). Whole blood was used for isolation of genomic DNA by a Genomic DNA Purification Kit (Gentra Systems, Minneapolis, Minn.) and to generate EBV-transformed human B-lymphoblastoid cell lines in the Einstein Human Genetics Cell Culture Core. Each G21 exon with flanking regions was amplified using Taq DNA polymerase, Q-solution (Qiagen, Valencia, Calif.) and primers listed in Table 4. G21 or RFC cDNA were amplified from lymphoblastoid cells by RT-PCR. PCR products were gel-purified and sequenced in an ABI 3730 DNA Analyzer (Applied Biosystems). The mutated region was verified by sequencing both DNA strands. An expression vector of the mutated G21 in which exon 3 was skipped (GenBank accession number: BC010691) was purchased from Open Biosystems and, along with pcDNA3.1(+)G21 (wild type), was used for an assay of transport function. Western blot analysis on whole cell lysate and cellular localization was performed as described above.
Site-directed mutagenesis. PCFT cDNA was cloned in pCDNA 3.1 (+) and mutations in the coding region were introduced by site-directed mutagenesis using PfuTurbo® DNA polymerase (Stratagene, La Jolla, Calif.) as described previously (Zhao et al., 2000). The entire PCFT coding region in the plasmid was sequenced to verify the presence of the mutation.
Transient transfections and assessment of 5-methylTHF transport. Plasmid concentrations were determined by UV absorption and verified by agarose gel analysis. HeLa cells were seeded and transiently transfected in 20 ml glass scintillation vials (Research Products International Corp., Mt. Prospect, Ill.) and after two days, [^3H]5-methylTHF uptake was assessed (Qiu et al., 2006). EBV-transformed B-lymphoblastoid cells, generated from blood (P6 and P7), were washed twice with, and resuspended in, unbuffered saline (160 mM NaCl, 5 mM KCl, 2 mM MgCl2, 5 mM glucose). Uptake was initiated by injection of the cell suspension into MES-buffered saline (pH 5.5) containing 0.5 μM [^3H]5-methylTHF. Surface binding was assessed by measuring [^3H]5-methylTHF associated with cells at 0° C. and the bound component was subtracted from total uptake.

[4] = substrate: CN(Cc1cnc2nc(N)nc(N)c2n1)c1ccc(C(=O)N[C@@H](CCC(=O)O)C(=O)O)cc1; test: cells, lysate or membranes
[5] = substrate: Nc1nc2ncc(CNc3ccc(C(=O)N[C@@H](CCC(=O)O)C(=O)O)cc3)nc2c(=O)[nH]1; test: Uptake of tritiated folates in G21 cRNA-injected Xenopus oocytes; assay type: cell-based, human
Procedure: Uptake studies in Xenopus oocytes. Defolliculated Xenopus laevis oocytes were prepared as described (Jansen and Akabas, 2006) and injected with 50 nl of water or G21 cRNA (30 ng). Radiotracer uptake was determined 3 or 4 days later. Seven to 10 oocytes were incubated in 500 μl of Modified Barth's Solution (MBS, in mM, 88 NaCl, 2.4 NaHCO3, 2.5 Na pyruvate, 1 KCl, 0.82 MgSO4, 0.41 CaCl2, 0.3 Ca(NO3)2, 15 MES or HEPES) and uptake of tritiated folate substrates assessed at room temperature. Uptake was halted by the addition of ice-cold MBS (pH 7.5). Oocytes were washed 10 times thereafter, and solubilized with 10% SDS for measurement of radioactivity. To collapse the pH gradient across the oocyte membrane, seven to 10 oocytes were incubated in MBS (pH 5.5) containing 0, 10, 20, 40, 60 μM FCCP for 20 min, and uptake of transport substrates assessed at pH 5.5.

[6] = substrate: Nc1nc2ncc(CNc3ccc(C(=O)N[C@@H](CCC(=O)O)C(=O)O)cc3)nc2c(=O)[nH]1; test: Two-electrode voltage-clamp electrophysiology in G21 cRNA-injected Xenopus oocytes; assay type: cell-based, human; settings: 17.0 °C
Procedure: Electrophysiological analyses in Xenopus oocytes. Defolliculated oocytes were injected with 50 nl of water (control) or G21 cRNA (50 ng), and kept at 17° C. in horse serum medium (in mM, 82.5 NaCl, 2.5 KCl, 1 MgCl2, 2.3 CaCl2, 5 HEPES, 5% horse serum, pH 7.5). Electrophysiological recordings were conducted 3-7 days after cRNA injection in buffer (in mM, 90 NaCl, 1 KCl, 1 MgCl2, 1.8 CaCl2, 5 TRIS, 5 MES) as described previously (Jansen and Akabas, 2006). Oocyte holding potential was −80 mV for Km determination. For current-voltage (I-V) relationships, from a −60 mV holding potential step changes in membrane potential were applied for 2 s in 10 mV increments between −100 and 30 mV in the absence and presence of substrate.

[7] = other: extracellular pH 5.5, pH 5.5
[8] = other: extracellular pH 6.0, pH 6.0
[9] = other: extracellular pH 6.5, pH 6.5
[10] = other: extracellular pH 7.0, pH 7.0
[11] = other: extracellular pH 7.5, pH 7.5

Molecule: CN1c2c(nc(N)[nH]c2=O)NCC1CNc1ccc(C(=O)N[C@@H](CCC(=O)O)C(=O)O)cc1 (mixture of isomers) [racemic 5-MTHF]
Ki [1]: 1400 nM

inhibitory effect on uptake of 2 μM [3H]folic acid (G21 (PCFT)): did not inhibit
Molecule: Nc1nc(N)c2nc(CNc3ccc(C(=O)N[C@@H](CCCNC(=O)c4ccccc4C(=O)O)C(=O)O)cc3)cnc2n1 [PT523]
Ki [2]: ~700 nM
Ki ([3]; HeLa and other cells): > 50 µM
Ki ([3]; pH 5.5, intestinal and other human cells): > 50 µM

B1: mutated G21 carrier: exon 3-deleted G21 (PCFT) protein, in-frame deletion of 28 amino acids (protein, listed as Homo sapiens)
chain: MEGSASPPEKPRARPAAAVLCRGPVEPLVFLANFALVLQGPLTTQYLWHRFSADLGYNGTRQRGGCSNRSADPTMQEVETLTSHWTLYMNVGGFLVGLFSSTLLGAWSDSVGRRPLLVLASLGLLLQALVSVFVVQLQLHVGYFVLGRILCALLGDFGGLLAASFASVADVSSSRSRTFRMALLEASIGVAGMLASLLGGHWLRAQGYANPFWLALALLIAMTLYAAFCFGETLKEPKSTRLFTFRHHRSIVQLYVAPAPEKSRKHLALYSLAIFVVITVHFGAQDILTLYELSTPLCWDSKLIGYGSAAQHLPYLTSLLALKLLQYCLADAWVAEIGLAFNILGMVVFAFATITPLMFTGALFSAVACVNSLAMLTASGIFNSLYPATLNFMKGFPFLLGAGLLLIPAVLIGMLEKADPHLEFQQFPQSP
[3H](6S)5-methylTHF uptake (transport function) (PCFT): lacked transport function

B2: G21 (PCFT) (Homo sapiens) (protein)
chain: MEGSASPPEKPRARPAAAVLCRGPVEPLVFLANFALVLQGPLTTQYLWHRFSADLGYNGTRQRGGCSNRSADPTMQEVETLTSHWTLYMNVGGFLVGLFSSTLLGAWSDSVGRRPLLVLASLGLLLQALVSVFVVQLQLHVGYFVLGRILCALLGDFGGLLAASFASVADVSSSRSRTFRMALLEASIGVAGMLASLLGGHWLRAQGYANPFWLALALLIAMTLYAAFCFGETLKEPKSTRLFTFRHHRSIVQLYVAPAPEKSRKHLALYSLAIFVVITVHFGAQDILTLYELSTPLCWDSKLIGYGSAAQHLPYLTSLLALKLLQYCLADAWVAEIGLAFNILGMVVFAFATITPLMFTGYGLLFLSLVITPVIRAKLSKLVRETEQGALFSAVACVNSLAMLTASGIFNSLYPATLNFMKGFPFLLGAGLLLIPAVLIGMLEKADPHLEFQQFPQSP
notes: expressed in transfected cells; host or cells: Xenopus laevis oocytes injected with capped G21 cRNA (pSPT64, SP6)
Km [4, 7]: 3.4 ± 0.8 (n = 3) μM
Km [4, 8]: 3.4 ± 0.5 (n = 3) μM
Km [4, 9]: 7.3 ± 0.6 (n = 3) μM
Km [4, 10]: 16.3 ± 2.8 (n = 4) μM
Km [4, 11]: 130.7 ± 11.6 (n = 3) μM
Km ([4]; other: pH 5.5, holding potential −80 mV, pH 5.5, 17.0 °C): 2.01 ± 0.16 µM
Km ([4]; other: pH 6.5, holding potential −80 mV, pH 6.5, 17.0 °C): 8.07 ± 0.60 µM
Km [5, 7]: 1.3 ± 0.1 µM
Km [5, 8]: 1.5 ± 0.1 (n = 2) μM
Km [5, 9]: 2.7 ± 0.2 (n = 3) μM
Km [5, 10]: 6.0 ± 2.6 (n = 2) μM
Km [5, 11]: 56.2 ± 5.6 µM
Km ([6]; other: pH 5.5, holding potential −80 mV, pH 5.5): 0.83 ± 0.05 µM
Km ([6]; other: pH 6.5, holding potential −80 mV, pH 6.5): 2.99 ± 0.09 µM

B3: S318R: human PCFT mutant protein (protein, UniProt Q96NT5 1-459, looked up, variant S318R)
Proton-coupled folate …: MEGSASPPEKPRARPAAAVLCRGPVEPLVFLANFALVLQGPLTTQYLWHRFSADLGYNGTRQRGGCSNRSADPTMQEVETLTSHWTLYMNVGGFLVGLFSSTLLGAWSDSVGRRPLLVLASLGLLLQALVSVFVVQLQLHVGYFVLGRILCALLGDFGGLLAASFASVADVSSSRSRTFRMALLEASIGVAGMLASLLGGHWLRAQGYANPFWLALALLIAMTLYAAFCFGETLKEPKSTRLFTFRHHRSIVQLYVAPAPEKSRKHLALYSLAIFVVITVHFGAQDILTLYELSTPLCWDSKLIGYGSAAQHLPYLTRLLALKLLQYCLADAWVAEIGLAFNILGMVVFAFATITPLMFTGYGLLFLSLVITPVIRAKLSKLVRETEQGALFSAVACVNSLAMLTASGIFNSLYPATLNFMKGFPFLLGAGLLLIPAVLIGMLEKADPHLEFQQFPQSP
[3H](6S)5-methylTHF uptake (transport function) (PCFT): essentially no uptake
